Consider 4 molecules from paper PMC4381951, “Musashi proteins are post-transcriptional regulators of the epithelial-luminal cell state”.

Holding throughout (settings): protein: recombinant; tags: SBP tag (N-terminal); GST removed by PreScission
In series [1] the target is T1, MSI1 (Musashi1) (UniProt Q61474 1-362). Put plainly: EMSA; mean of 2 gel shifts; EMSA buffer not given; RBNS: 25 mM Tris pH 7.5, 150 mM KCl, 3 mM MgCl2, 0.01% Tween, 1 mg/ml BSA, 1 mM DTT, 30 ug/ml poly I/C, room temperature.
Series [2] addresses T1, MSI1 (Musashi1). Put plainly: EMSA; EMSA buffer not given; RBNS: 25 mM Tris pH 7.5, 150 mM KCl, 3 mM MgCl2, 0.01% Tween, 1 mg/ml BSA, 1 mM DTT, 30 ug/ml poly I/C, room temperature.
Series [3] addresses T1, MSI1 (Musashi1). Put plainly: EMSA; no binding detected, Kd cannot be estimated; EMSA buffer not given; RBNS: 25 mM Tris pH 7.5, 150 mM KCl, 3 mM MgCl2, 0.01% Tween, 1 mg/ml BSA, 1 mM DTT, 30 ug/ml poly I/C, room temperature.

T1 sequence (Q61474 whole entry): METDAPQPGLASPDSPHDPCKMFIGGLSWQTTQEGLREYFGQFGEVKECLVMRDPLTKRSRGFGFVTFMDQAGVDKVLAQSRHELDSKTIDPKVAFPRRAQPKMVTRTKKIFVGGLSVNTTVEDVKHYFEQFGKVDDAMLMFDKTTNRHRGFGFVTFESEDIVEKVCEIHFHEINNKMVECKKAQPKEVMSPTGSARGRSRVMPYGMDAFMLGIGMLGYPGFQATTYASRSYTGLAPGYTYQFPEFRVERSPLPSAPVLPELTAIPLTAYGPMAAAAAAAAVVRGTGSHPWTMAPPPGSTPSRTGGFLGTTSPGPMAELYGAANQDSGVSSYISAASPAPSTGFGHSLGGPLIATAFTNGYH

UCAAAGUAGAAUUUUUGUAUAGUUAUGUAAAUAAU (ssRNA) [Jag1 3' UTR region 2]: the Kd with MSI1 (Musashi1) [1] worked out at 9 nM. With UCAAAGUCCAAUUUUUGUAUCCUUAUGUAAAUAAU (ssRNA) [Jag1 3' UTR region 2 mutant], in the series with MSI1 (Musashi1) [2], the Kd was 649 nM.

With UGUCCAGUUCCAUCACUGUUUCCAU (ssRNA) [Jag1 3' UTR region 1 mutant], in the series with MSI1 (Musashi1) [3], the binding result is “no binding”. With UGUCCAGUUAGAUCACUGUUUAGAU (ssRNA) [Jag1 3' UTR region 1], in the series with MSI1 (Musashi1) [1], the Kd turned out to be 15 nM.
